The text below walks through data of patent publication US20090226370A1.

The target of this test is RFP-fused mouse full length COMP expressed in RCS cells (pDsRed1-N1-COMP) (mouse) (UniProt Q9R0G6). Kind of test: cell-based or functional assay.
Chain of UniProt Q9R0G6 (Q9R0G6 20-755): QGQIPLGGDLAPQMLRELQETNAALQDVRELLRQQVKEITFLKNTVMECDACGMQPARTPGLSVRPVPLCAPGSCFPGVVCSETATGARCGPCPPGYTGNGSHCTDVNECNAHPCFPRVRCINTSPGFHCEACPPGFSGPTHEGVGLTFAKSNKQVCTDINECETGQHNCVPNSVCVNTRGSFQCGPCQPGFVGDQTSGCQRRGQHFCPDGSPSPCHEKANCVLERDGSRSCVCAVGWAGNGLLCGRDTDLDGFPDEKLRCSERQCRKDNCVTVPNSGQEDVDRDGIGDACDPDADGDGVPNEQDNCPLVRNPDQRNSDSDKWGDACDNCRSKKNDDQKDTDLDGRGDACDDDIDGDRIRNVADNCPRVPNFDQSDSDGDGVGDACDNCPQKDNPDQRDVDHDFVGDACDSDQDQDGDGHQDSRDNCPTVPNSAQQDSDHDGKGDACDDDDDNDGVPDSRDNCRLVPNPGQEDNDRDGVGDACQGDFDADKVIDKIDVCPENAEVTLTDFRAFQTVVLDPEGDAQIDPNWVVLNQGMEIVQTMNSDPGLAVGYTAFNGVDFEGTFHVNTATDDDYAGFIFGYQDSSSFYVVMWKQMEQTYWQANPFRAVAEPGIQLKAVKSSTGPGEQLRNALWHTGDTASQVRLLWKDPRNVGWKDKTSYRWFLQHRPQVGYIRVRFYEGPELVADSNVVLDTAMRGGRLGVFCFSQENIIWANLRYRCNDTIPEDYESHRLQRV

As to “GFP-linked GEP expressed in RCS cells (pEGFP-GEP) (ligand)”, the enhancement of GEP-mediated stimulation of RCS cell proliferation by coexpression of COMP, day 2 (viable cell count) came out at 2.3 fold; the enhancement of GEP-mediated stimulation of RCS cell proliferation by coexpression of COMP, day 3 (viable cell count) turned out to be 2.1 fold; the enhancement of GEP-mediated stimulation of RCS cell proliferation by coexpression of COMP, day 4 (viable cell count) was 1.7 fold; the enhancement of GEP-mediated stimulation of RCS cell proliferation by coexpression of COMP, day 5 (viable cell count) was 1.5 fold.
